Results taken from paper PMC5636753, “Structural basis for DAXX interaction with ATRX” (Protein & Cell, 2017).
Where two headings read alike, the source gives them in different places.

T1: DAXX V125A (Homo sapiens)
T1 chain: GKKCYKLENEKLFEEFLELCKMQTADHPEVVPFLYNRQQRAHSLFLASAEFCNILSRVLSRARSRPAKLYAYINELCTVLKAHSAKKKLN

T2: DAXX I127A (Homo sapiens)
T2 chain: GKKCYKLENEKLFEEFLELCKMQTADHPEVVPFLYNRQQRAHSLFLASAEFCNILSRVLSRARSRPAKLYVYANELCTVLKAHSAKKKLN

T3: DAXX helical bundle (DHB) domain, DAXX_(55–144) (UniProt Q9UER7 55-144)
T3 chain: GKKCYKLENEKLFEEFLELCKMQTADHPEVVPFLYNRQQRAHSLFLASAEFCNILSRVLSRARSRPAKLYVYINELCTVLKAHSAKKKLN

T4: DAXX V84A (Homo sapiens)
T4 chain: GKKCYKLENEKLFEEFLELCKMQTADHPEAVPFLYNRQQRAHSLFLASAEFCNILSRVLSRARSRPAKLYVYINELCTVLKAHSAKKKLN

T5: DAXX F87A (Homo sapiens)
T5 chain: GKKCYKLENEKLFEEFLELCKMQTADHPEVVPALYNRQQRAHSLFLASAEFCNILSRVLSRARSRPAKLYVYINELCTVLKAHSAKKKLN

T6: DAXX Y124A (Homo sapiens)
T6 chain: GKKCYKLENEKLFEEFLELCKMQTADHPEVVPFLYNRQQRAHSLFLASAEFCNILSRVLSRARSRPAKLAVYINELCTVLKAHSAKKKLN

T7: ATRX_(1,188–1,326) (UniProt P46100 1188-1326)
T7 construct: Alpha-thalassemia/mental retardation syndrome X-linked protein (ATRX), residues 1188-1326
T7 sequence (looked up): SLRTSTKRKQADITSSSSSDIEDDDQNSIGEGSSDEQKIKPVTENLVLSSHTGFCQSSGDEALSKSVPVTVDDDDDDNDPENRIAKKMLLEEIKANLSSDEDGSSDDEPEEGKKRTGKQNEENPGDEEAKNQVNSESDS


Legend:
[1] = target: T1, DAXX V125A; assay: ITC
[2] = target: T2, DAXX I127A; assay: ITC
[3] = target: T3, DAXX helical bundle (DHB) domain, …; assay: ITC
[4] = target: T4, DAXX V84A; assay: ITC
[5] = target: T5, DAXX F87A; assay: ITC
[6] = target: T6, DAXX Y124A; assay: ITC
[7] = target: T3, DAXX helical bundle (DHB) domain, …; assay: ITC
[8] = target: DAXX helical bundle (DHB) domain, DAXX_(55–144) (UniProt Q9UER7); assay: ITC; isothermal titration calorimetry of ATRX fragments with DAXXDHB; conditions not shown (methods in the supplement)
[9] = target: T7, ATRX_(1,188–1,326); assay: as above; settings: both partners purified

| Binder | Kd [3] [nM] | further results |
| --- | --- | --- |
| ATRX_(1,253–1,326) (domain or fragment) SVPVTVDDDDDDNDPENRIAKKMLLEEIKANLSSDEDGSSDDEPEEGKKRTGKQNEENPGDEEAKNQVNSESDS | 160 | Kd [1]: 280 nM; Kd [2]: 810 nM; Kd [4]: 2040 nM; Kd [5]: 2190 nM; Kd [6]: 5920 nM; Kd [7]: 170 nM |
| ATRX L1276Q (protein) SVPVTVDDDDDDNDPENRIAKKMQLEEIKANLSSDEDGSSDDEPEEGKKRTGKQNEENPGDEEAKNQVNSESDS | 43300 | – |
| ATRX L1276A (protein) SVPVTVDDDDDDNDPENRIAKKMALEEIKANLSSDEDGSSDDEPEEGKKRTGKQNEENPGDEEAKNQVNSESDS | 8330 | – |
| ATRX I1280A (protein) SVPVTVDDDDDDNDPENRIAKKMLLEEAKANLSSDEDGSSDDEPEEGKKRTGKQNEENPGDEEAKNQVNSESDS | 400 | – |
| ATRX I1280Q (protein) SVPVTVDDDDDDNDPENRIAKKMLLEEQKANLSSDEDGSSDDEPEEGKKRTGKQNEENPGDEEAKNQVNSESDS | 7350 | – |
| ATRX L1276A/I1280A (protein) SVPVTVDDDDDDNDPENRIAKKMALEEAKANLSSDEDGSSDDEPEEGKKRTGKQNEENPGDEEAKNQVNSESDS | 12000 | – |
| ATRX L1277R (protein) SVPVTVDDDDDDNDPENRIAKKMLREEIKANLSSDEDGSSDDEPEEGKKRTGKQNEENPGDEEAKNQVNSESDS | 970 | – |
| ATRX A1272R (protein) SVPVTVDDDDDDNDPENRIRKKMLLEEIKANLSSDEDGSSDDEPEEGKKRTGKQNEENPGDEEAKNQVNSESDS | 1040 | – |
| ATRX L1276R (protein) SVPVTVDDDDDDNDPENRIAKKMRLEEIKANLSSDEDGSSDDEPEEGKKRTGKQNEENPGDEEAKNQVNSESDS | 73500 | – |
| ATRX I1280R (protein) SVPVTVDDDDDDNDPENRIAKKMLLEERKANLSSDEDGSSDDEPEEGKKRTGKQNEENPGDEEAKNQVNSESDS | 34800 | – |
| DDDDDNAPANRIAKKMLLEEIKANLSSDED [ATRX 1,260–1,289 M2 (D1266A/E1268A)] | 1750 | – |
| AAAAANDPENRIAKKMLLEEIKANLSSDED [ATRX 1,260–1,289 M1 (D1260A/D1261A/D1262A/D1263A/D1264A)] | 850 | – |
| DDDDDNDPENRIAKKMLLEEIKANLSSDED (domain or fragment) [DAXX-binding motif of ATRX, ATRX_(1,260–1,289)] | 160 | – |
| ENRIAKKMLLEEIKANLSSDED (domain or fragment) [ATRXDBM with deletion of N-terminal eight residues] | 10300 | fold decrease in affinity against ATRXDBM [8]: 60 fold |
| DAXX helical bundle (DHB) domain, DAXX_(55–144) (domain or fragment, UniProt Q9UER7 55-144, looked up, death-domain associated protein (DAXX), N-terminal DAXX helical bundle (DHB) domain; model of the crystal covers residues 57-141; Limits 55-144 are printed for the mutagenesis panel; Crystals were selenomethionine-substituted; also called DAXXDHB; DAXX DHB) GKKCYKLENEKLFEEFLELCKMQTADHPEVVPFLYNRQQRAHSLFLASAEFCNILSRVLSRARSRPAKLYVYINELCTVLKAHSAKKKLN | – | Kd [9]: 160 nM |
